Assay results published in patent US20220298235A1 (AKESO BIOPHARMA, published 2022).

Experiments:
human p40-His [1] = molecular target: T1, human p40-His (human, UniProt P29460 23-328); assay: BLI (Fortebio), p40-His on HIS1K sensor, antibody 5-0.31 nM, 37 °C, 1:1 fit
T1 construct: Made by Akeso Biopharma; construct limits and tag not described; also called human IL-12/IL-23 p40 protein domain; human IL-12/IL-23 p40; not shown: His tag
T1 sequence (looked up): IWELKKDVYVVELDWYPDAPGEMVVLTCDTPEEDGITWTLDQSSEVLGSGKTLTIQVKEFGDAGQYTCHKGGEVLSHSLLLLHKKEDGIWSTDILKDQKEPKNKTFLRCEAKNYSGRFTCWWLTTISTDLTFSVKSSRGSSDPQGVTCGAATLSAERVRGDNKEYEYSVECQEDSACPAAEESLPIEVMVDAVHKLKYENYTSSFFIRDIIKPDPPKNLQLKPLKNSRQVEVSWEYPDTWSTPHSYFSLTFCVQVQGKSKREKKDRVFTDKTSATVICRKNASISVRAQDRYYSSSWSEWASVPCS
Procedure: The sample dilution buffer for H5L9, H5L10, H5L11, H5L12, H5L14, H8L15, Ab123FR1 and ustekinumab was PBS (0.02% Tween-20, 0.1% BSA, pH 7.4). p40-His was immobilized on a HIS1K (manufacturer: Fortebio, Cat. No.: 18-5120) sensor at a concentration of 1 μg/mL for 40 s. The sensor was equilibrated in a buffer for 60 s, and the p40-His immobilized on the sensor bound to the antibody at a concentration of 5-0.31 nM (two-fold dilution) for 120 s, and then the protein dissociated in the buffer for 300 s. The sensor was refreshed with 10 mM glycine solution (pH=1.5). The detection temperature was 37° C., the detection frequency was 0.3 Hz, and the sample plate shaking rate was 500 rpm. The data were analyzed by 1:1 model fitting to obtain affinity constants.

Human IL12 (His Tag) = molecular target: T2, Human IL12 (His Tag) (human, UniProt P29459 23-219; P29460 23-328); assay: FACS competition, IL12-His (40 nM mixed 1:1) on 293T-IL-12Rβ1&IL-23R cells
T2 construct: Bought His-tagged heterodimer
T2 sequence (looked up) 1: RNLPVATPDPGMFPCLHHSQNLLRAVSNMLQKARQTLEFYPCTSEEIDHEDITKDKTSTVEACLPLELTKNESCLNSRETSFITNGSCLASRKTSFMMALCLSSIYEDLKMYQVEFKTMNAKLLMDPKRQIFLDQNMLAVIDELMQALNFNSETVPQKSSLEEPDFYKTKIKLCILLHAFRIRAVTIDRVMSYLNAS
T2 sequence (looked up) 2: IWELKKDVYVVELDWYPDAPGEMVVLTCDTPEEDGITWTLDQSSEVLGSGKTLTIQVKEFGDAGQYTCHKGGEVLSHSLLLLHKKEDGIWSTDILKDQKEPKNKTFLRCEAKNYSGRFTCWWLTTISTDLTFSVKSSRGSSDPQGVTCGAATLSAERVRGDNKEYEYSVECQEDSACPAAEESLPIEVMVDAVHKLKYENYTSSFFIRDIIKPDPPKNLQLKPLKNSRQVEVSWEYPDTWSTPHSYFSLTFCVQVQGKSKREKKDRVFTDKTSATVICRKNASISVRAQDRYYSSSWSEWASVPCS
Procedure: 200 μL of 1% PBSA was added into each sample, and the mixture was centrifuged at 1200 rpm for 5 min to discard the supernatant. According to experiment design, correspondingly diluted antibody (highest final concentration of 60 μg/mL, 3-fold dilution, 8 concentrations in total) and IL12-His (Sino Biological, Cat. No.: CT-050-H08H-20) (40 nM) were mixed at a ratio of 1:1, and a blank control was set. The mixture of antibody and IL12 was incubated on ice for 30 min and then added to the cell precipitate at 100 μL/sample. The resulting mixture was well mixed and incubated on ice for 60 min 200 μL of 1% PBSA was added, and the mixture was centrifuged at 1200 rpm for 5 min to discard the supernatant, and then washed twice. THETM His tag antibody (FITC) (Genscript, Cat. No.: A01620) was diluted at a ratio of 1:500 and added to each tube at 100 μL. The mixture was well mixed and incubated on ice for 40 min in the absence of light. 200 μL of 1% PBSA was added, and the mixture was centrifuged at 1200 rpm for 5 min to discard the supernatant, and then washed twice. 1% PBSA was added at 200 μL/tube, and the cells were resuspended and transferred to a flow cytometry tube for testing.

[2] = molecular target: T3, human IL-23 (IL-23-His-Biotin) (human, UniProt Q9NPF7 20-189; P29460 23-328, biotin label, site not stated); assay: FACS competition, IL23-His-Biotin (4 µg/mL mixed 1:1) on 293T-IL-12Rβ1&IL-23R cells
T3 construct: Akesobio lot 20161209; His-tagged and biotinylated
T3 sequence (looked up) 1: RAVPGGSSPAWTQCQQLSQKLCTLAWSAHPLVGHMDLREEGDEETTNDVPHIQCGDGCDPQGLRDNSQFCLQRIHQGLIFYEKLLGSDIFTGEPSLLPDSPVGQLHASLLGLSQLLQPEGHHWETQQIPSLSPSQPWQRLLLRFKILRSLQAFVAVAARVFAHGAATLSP
T3 sequence (looked up) 2: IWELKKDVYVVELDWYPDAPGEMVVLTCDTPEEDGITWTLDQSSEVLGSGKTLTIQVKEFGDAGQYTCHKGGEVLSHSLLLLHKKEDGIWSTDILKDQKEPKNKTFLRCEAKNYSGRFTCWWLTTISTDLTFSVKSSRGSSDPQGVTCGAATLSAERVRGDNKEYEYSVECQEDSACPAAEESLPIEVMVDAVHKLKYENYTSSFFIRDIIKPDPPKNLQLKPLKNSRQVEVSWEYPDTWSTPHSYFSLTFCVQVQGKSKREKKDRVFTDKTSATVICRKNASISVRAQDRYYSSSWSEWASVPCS
Procedure: 200 μL of 1% PBSA was added into each sample, and the mixture was centrifuged at 1200 rpm for 5 min to discard the supernatant. According to experiment design, correspondingly diluted antibody (highest concentration of 60 μg/mL, 3-fold dilution, 8 concentrations in total) and human IL23-His-Biotin (Akeso Biopharma, Inc., Lot. No.: 20161209) (4 μg/mL) were mixed at a ratio of 1:1, and a blank control was set. The mixture of antibody and IL23-His-Biotin was incubated on ice for 30 min and then added to the cell precipitate at 100 μL/sample. The resulting mixture was well mixed and incubated on ice for 60 min. 200 μL of 1% PBSA was added, and the mixture was centrifuged at 1200 rpm for 5 min to discard the supernatant, and then washed twice. FITC Steptavidin (Biolegend, Cat. No.: 405202) was diluted at a ratio of 1:500 and added to each tube at 100 μL. The mixture was well mixed and incubated on ice for 40 min in the absence of light. 200 μL of 1% PBSA was added, and the mixture was centrifuged at 1200 rpm for 5 min to discard the supernatant, and then washed twice. 1% PBSA was added at 200 μL/tube, and the cells were resuspended and transferred to a flow cytometry tube for testing.

human p40-His [3] = molecular target: T1, human p40-His; assay: indirect ELISA, p40-His coat 0.25 µg/mL
Procedure: A microplate was coated with human p40-His (Akeso Biopharma, Inc.; gene of p40: GeneBank NM002187). After incubation at 4° C. for no less than 12 h, the plate was washed with PBST, patted dry and blocked with a solution of 1% BSA in PBS. After blocking was completed, the plate was washed with PBST and patted dry. The antibody diluted with PBST solution in gradient was added into the wells of the plate, and the antibody dilution gradient is detailed in Table 1. The plate containing the test antibody was incubated at 37° C. for 30 min and then washed with PBST and patted dry. […] TMB (Neogen, 308177) was added for color developing for 5 min in the absence of light, and then stop solution was added to terminate the chromogenic reaction. Then the plate was put into a plate reader immediately, and the OD value of each well in the plate was read at 450 nm. The data were analyzed by SoftMax Pro 6.2.1.
The binding EC₅₀ of antibody was calculated by curve fitting using antibody concentration as the abscissa and absorbance value as the ordinate, and the results are shown in Table 4 below.

Kd (human p40-His [1]): 0.0609 nM | S E (kon) (human p40-His [1]): 213000 M⁻¹ s⁻¹ | S E(kdis) (human p40-His [1]): 0.000137 s⁻¹ | koff (human p40-His [1]): 0.00018 s⁻¹ | kon (human p40-His [1]): 2.95e+06 M⁻¹ s⁻¹ | EC50 (Human IL12 (His Tag)): 1.46 µg/mL | EC50 [2]: 0.894 µg/mL | EC50 (human p40-His [3]): 0.059 nM
B1: H8L15 (antibody, human IgG1, kappa, V domains shown)
VH: EVQLVQSGAEVKKPGESLKISCQSSGYTFTSYWIGWVRQMPGQGLEWIGIMSPVDSDIRYNPMFRGQVTMSVDKSSSTAYLQWSSLKASDTAMYYCARRRPGQGYFDFWGQGTMVTVSS
VL: EIVLTQSPATLSASPGERATISCRASQSVGTWVAWYQQKPGQAPRSLIYAASNLQSGIPARFSGSGSGTDFTLTISSLEPEDFAVYYCQQYNIYPYTFGQGTRLEIKR
notes: human IgG1 (P01857) / kappa (P01834) constant regions; also called anti-human IL-12/IL-23 p40 antibody H8L15; H8L15H1L1
